Laboratory results from the DeepSol protein solubility set.

Assay: soluble on expression in E. coli; label from the status in PepcDB or PDB records

Sequence | soluble on expression in E. coli
MGSDKIHHHHHHMASMFNRVPPLHLLVAFEAAARLGSFARAAEELSVTPSAVSHRIKNLEELWGEDLFVRSNAALRLTAAGTRYLRNVQDALKSLNELARPEYNKMRTRLRVAIPPTFGRQHLVPRLPEFGALYPHIDIELHLAIPFLDVKAEDTDVEIRYGTGRYPDLKTTKLLVEPVFPACGREYYERVNGRAITKPEHLHGLVLLRSPLEPWKPWFETAGLDWPEPQTGPQLNDIGLMLEAVASNQGVALVRQRMARHWLSLGQMVRLLDIESVSPHGYYIVEREQAPLKPEARYFVDWLLSLDW | not soluble
GPGSMDYNLEYSEEQREYLERVGMREYLETFVAEVVRQKPNDIYAFLHDWASAHCQKQTKMTPTEASIKIQCAQRQNLAIKEMRSRQRKVNELLEQEETERVGKVEMEG | soluble
MSDKPHRIVIVGGGAGGLELATALGNKYGKSDAVRVTLVDRSRTHIWKPLLHAIAAGSLRRSQHELNYLAQAHWHGFHYRLGEMNGLDRARKVIKLAPVIDDEGREINPESELAYDTLVIAIGSVTNDFGTPGARDHAVPLETPEQASRFNKRMVNACLRAQHQHAPIEPGQLHVAIIGAGATGTELAAELHHTAREIIAYGLDKIDPEHDLKIVLIEAAPRILPALPPRISDATLKLLLDLGVEVRTGARVAEVLDHAVRLADGEVIPSELVVWAAGVRAPDFLEGIDGLDTNRINQLVVRPTLQTTRDDNVFGMGDCAACAIPGYENGVPPRAQAAHQEAEFMLEQIEKRLKGEPLGEFRYRDLGSLVSLGKYSAVGNLMGSLVGKSFLIEGYFARFMYRSLYKMHEAALYGRGRTLLSVLSGSTRPTPTVKLHLEHHHHHH | not soluble
MSYSKPLAYPSQKCVIKHMEVNSRFKLSHQSPSIRKIEKSTPLRIDSLTLKLDQCSVKINNILHTFRKEKLPKNMQLPQAFMCLMSKLFCGRRDPIQVKTLSIECKGSLQLPAGLCLKVSHLEILGSGVDKIADDLQPLLRGSKLQSITVNNDFNIHHPIFKTAHLLILKNPNKNLFRATAASNVMVKSTCQFLDLFDKIVELIRNWQSYGQKIGAIWNFSMRQEQFALLSLVQLRKLPGASYKGHEKFSESGRSIIIPIDNSAEVHAFVKKEQDDCNLNVIVRRRQF | soluble
LKSESAEKTREVLWQQYYASNPPDHAVLEVLATPVREALLARFGQHQGSVVPAIDLPELRSVLQQFDSFGKRWEAILLQVLEGIKPNESQVGLPYLSELINKELMILLPSNS | soluble
MGSDKIHHHHHHMKKLLAIGILCIMVTAVMSGCVSEKEININNSNKITTNMPVSEKNITKILKYAKNMNLIYYDENGNIVNPYNGDKWKYKVFIDATGQKFLLKNKDDPVPSWAKEKLGDNFKVINVPLTRVIVMSSTEIALMEAINDDGSVIGSVKGIMWGKSYKWYFKDINKSLAEGKIIDVGSSSNPNWDKIIEINPQVIFVYPGYDGDKIIAKCKELGITYVADAEYLENDPLGRCEWVKMFAAFYNKEPEAKRYFEKVEDNCLKVINKTKNCPKVTVAWGYNSQWGCYVPENNSYVAKEIMFYCNGDYIFKDLNGTGSAKINYETFAERAKDADVWVVPSSTAWLSTFKEDNPGYETFKAVKNGRVFCESDDYWQLGLLKTDEVIMDLATILHPEAFKGRKTHFFLKYNIENNTATPFIAK | not soluble
MGSDKIHHHHHHLSPSVYPKSMADMETIVTSVYANMVAVPLYGKRVMAKGTFCVDHTVDMAWTGDANWNQLATNQVTSDNAYIGTLWIGYYKMISCANTVLEQLERIDKEKFTDADLARLSQMKGEALFWRGWAHQQLVAFFGEGYPCNGDGDKKGVPVRLQVASTPDMLNIERSTVAEVYDQILKDYEAAKLLLPAVWEERADYPRPTSVAVASYIGQANLYMGNYDAAKKALKEVIDSSGKELLPFNEYAKMFNEDQEKFNRESILEINFRNGDTSGYFWYGEGSQYGLIAALCFQNASGDVEAAGWGNIFFHDANIKRFNGDPRLDIAALRPGTPVIMNGQQTQVLKYKDTEADIQGWSMRKYNPLKSTVNELNLGVGINMYLMRLADVYLMYAEACQATGDEVNARNYMNLVRRRAYNGDSSHDITASGEALRDAIREERFMEFCGEGVQHWQDVCRWKVLDEEISRWYGKTRVGNPHYDAKDLYFPIPKVEMENNPNMTQSIGYENE | not soluble
MAPRDIRPGAEYGDIIEEAIVTCKVFLIVFSETSQISRWVRSELNIGFSSNKPIIPFRIDPTDLKGSMKLMLNDKHWLNAYPNPEEKFSELAAVILDLLQHPAVDTISPPGFQPASNVASADGSNAGAQGLFGKLLNQLFVKRRVKVTSDHAAEIFLNGERKGKLDAYETGNYSVSEDFYQLEVYSCEYGKKVKCEYSGSFSNSSTVIISVDMATAEKQYLMKAKNITSGQINDLGIIFLDEGKFEDAQECFLKAASMGEAAAAYNLGMMYHFGKGVEIDYDVAREYYEEAVKSDYPLALNNLGSIYYNGHGVRKDIAKSFPYFCRAAERGVESAQFTVATMLFYGQGVAVDKAKAKKWFQKAAAQGCKDSQNYLNSWVDDLEHHHHHH | soluble
MIKTGELKYIEEKIERREDLDEDDIVYMYDEADVNDLGKLARSITDKISGKRVSFVSNIILNYTNICNVRCKFCAFYRKSGEYDAYTMTPDGVIDEIRKYYPYGIRQILIQGGVNPNLDLDYYLTVFRKIRENFTEAGINGLSAAEINFISKKAHLTYEETILKLKEAGLETIPGAGAEILDEDVRVKLGRPRGSGRQWLEIMETAHRLGVKTTATMVYGHIESSMDKARHLISIRNLQKKYHGFLSFTPWNMEPDNTELQKEGILKYRAGAEDVIRNIAISRIVFNYDLPIIQSSWLTNGVEMGQLAILYGANDWGGTIYDEKVIPATGKRVGNLRKEIIIRSIKDLGMVPVERDNLYREIAVYE | not soluble
GMAKKTLILYYSWSGETKKMAEKINSEIKDSELKEVKVSEGTFDADMYKTSDIALDQIQGNKDFPEIQLDNIDYNNYDLILIGSPVWSGYPATPIKTLLDQMKNYRGEVASFFTSAGTNHKAYVSHFNEWADGLNVIGVARDDSEVDKWSK | soluble
MGHHHHHHSHMPDNHKDPPDFNNLEMKLEERIELSREDQDIQSTSSSYPHCEALDHIVSMESTYDFHRQMAHKDLQKHRQEYEKASEKILELRKKLTDWNMDPKKRKWIEDDLDSLVRKQESALSRIRLAEKCTKRDLRNDPPPAYQPDDPLKDLRKNFEKKEKPTWNDVEKKKNGVFEFH | not soluble
MATFVPFVTCLDTGFWNEVNKKKLNDWKLDETPKCISSQLSLHQTEGFKCHLSLSYDSLSSLESTTGLSMSGTLLLYNTIESFKMVDKSDLIRSEAEKIWESITTRKWLQNPRLLSQFFIIAFADLKKFKYYYWTCVPALVYPSEIKQEITPLSSLGADHKILFDFYRKNNFPIFLYSKQSSKMLELSELENNTNPDEICVVVADPSPVAYSAGWMVRNVLAAVAHLHPTWKHCHIISLRSADSIGIKYTWTLPSAECSADGAQNAVPKAVGWERNANDKLQPISVDLSKEFDPKILMERSVDLNLSLIKWRLHPDIQLERYSQLKVLILGAGTLGCNIARCLIGWGVRHISFLDNSTVSYNNPVRQSLSEFEDARLGRGKAETAQAAIQRIFPSIQATAHRLTVPMPGHSIDEKDVPELEKDIAKLEQLVKDHDVVFLALDSREARWLPTVLASRHKKIAISVAIGFDTYVIIRHGIGSRSESVSDVSSSDSVPYSQLSCYFCSDVTAPGNSTFDRTLDQQCTVARPGTSMIASGIAVELLSSVLQYPDPLKTPASHDDNTTVLGAAPHQIRGFLGRFQQILPSVKRFDQCVACGDAIAAQFQQNGWKFVRDVMNSPGRLEEVTGLDELQNSVNAIDIDFEDDEDF | soluble
MLRGLRIIAENKIGVLRDLTTIIAEEGGNITFAQTFLIKHGEHEGKALIYFEIEGGDFEKILERVKTFDYIIEIEEEESFERVFGKRVIILGGGALVSQVAIGAISEADRHNLRGERISVDTMPVVGEEEIAEAVKAVSRLHRAEVLVLAGGIMGGKITEEVKKLRKSGIRVISLSMFGSVPDVADVVISDPVMAGTLAVMHISEKAKFDLDRVKGRRI | soluble
MTAENIVVVAVDGSEASQNAVRWAANTANKRGVPLRLAASYTMPQFLYAEGMVPPQELFDELQSETMDMIEAARVVAHEVAPDIKIGYVIAEGSPIDMLLDMSSDVTMIVMGSRGLGGLSGMVMGSVSAAVVSHADCPVVVVRSDNHVTETNKYGPVVVGVDGSDVSQRATEFAFEEAQARGAKLVAIHTWMDMQVQASLAGLAAAQQEWEIIEKEQTTLLKDRLQPLLERFPDVEVEMVITRDRPVRALEDCAHNAQLLVVGSHGRGGFRGMLLGSTSRALLQSAPCPMVVVRPNEKEN | not soluble
MGPAKKKKKGKEKKFRRELGSWSAVELEKFIEYKAEDAGKKVIYINPKYSPQKCSRCGYVSKENRHDSVFKCKNCGFELNADLNASRNIEVIRVSEYFRLLSASQSLLFNETPLTGGAGDQRQAPKLLEHHHHHH | soluble
VTSDPGTAAPVKRTAEQSRSLIVDAAGRAFATRPYREITLKDIAEDAGVSAPLIIKYFGSKEQLFDALVDFRAAAEIVFSGPLDGLGERMVSMFARPLEPYKPLSLNILFMSGPSEESSRKLRANYSAQMIDALAERLPGRDARLRAELVMSMLTGLAVMRRKMMQEHATGTPEEVVAHYAPLVQELLDG | soluble
MSQFEKQKEQGNSLFKQGLYREAVHCYDQLITAQPQNPVGYSNKAMALIKLGEYTQAIQMCQQGLRYTSTAEHVAIRSKLQYRLELAQGAVGSVQIPVVEVDELPEGYDRS | not soluble
MSLKIVLIAPYRDLLETAITVKKDLNVDIELELGDLSEGVKVAREWEKKGVDIIISRGGTYQLIKESVSVPVVEIKVSAFDILRQFNGLIGCKEIIGVAGYKNVIYGCEVIGEILDLNLIKVVIEKEEEGLRQVAAAKEKGVSLIIGDTIGAYSAKRLGLKSRLITSGKEAVAAAVSESFRLAQALKAEKEKAEQIRTIVDFVHDGIIAIDKEGRVSIYNRMAEKIFKRPPAEAVGRKVETVVPNTRLYEVIETGKPQIGELQEVLGTMITTNRVPIVVGNEVVGAVATFQDVTMLQKVEQKIRRQLADRGLVAMYTFDEGHHHHHH | soluble
MGSDKIHHHHHHMAKILVVTDGAYGYRIKGTINSFGKKNKFIGIYKINKPDDLIVDDIEFPDELLEKIKEADILLLYTQHPDNTYYLCYEARRLNKDIAIIVATWSGEGEKKELKKFDAICPEEMCLLDENEVGSLIDKYPKLKEFLEEFGTPKVKVYVKDNKVIDVEVLRTSICGSTLFMAKLMKGMEVNDIEEFAKKSAMLIQRYPCVAGKIKIFRGDCRKQKALNIHKEAVLEGIIFI | not soluble
MLPFVFNADDDGKRVQNEEGNYDPTDHQRQMEDYYKQYEEQRVANSFHNTTGRPDLVAMQARLAETEQAIHRLNEEKKQPPPGFPIMTTPATQPEISIPRSGENKSSRSPSWAREARRSRSRSRDRRGGRSRSRSPSRRRTSRDRRDDRSSRRRRGPIINQLS | soluble
YNPLYSIENATSRRDTVLQNMVAAGKISQKQANEAKKVGMGNRISDTYVAKTDDYQYPSYFDAVISEASSVYGISEKDIVNNGY | not soluble
ISDPVELLKRAEKKGVPSSGFMKLFSGSDSYKFEEAADLCVQAATIYRLRKELNLAGDSFLKAADYQKKAGNEDEAGNTYVEAYKCFKSGGNSVNAVDSLENAIQIFTHRGQFRRGANFKFELGEILENDLHDYAKAIDCYELAGEWYAQDQSVALSNKCFIKCADLKALDGQYIEASDIYSKLIKSSMGNRLSQWSLKDYFLKKGLCQLAATDAVAAARTLQEGQSEDPNFADSRESNFLKSLIDAVNEGDSEQLSEHCKEFDNFMRLDKWKITILNKIKESIQQQEDDLL | soluble
